In the supplement of paper PMC9112550, “Optimization of the antimicrobial peptide Bac7 by deep mutational scanning” (BMC Biology, 2022):

Tested on: Escherichia coli TOP10
Test: shrunken log2 fold change of peptide-encoding DNA abundance (4.5 h post-induction vs induction); higher = less antimicrobial activity (less host growth inhibition)
Details: time post-induction: 4.5 h; library: site-saturation at positions 5, 18, 19, 20
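Also: peptides expressed intracellularly from a pBAD plasmid library in pooled LB shake-flask culture, induced with 0.3% L-arabinose, DNA abundance read by NGS, three biological replicates, DESeq2 with apeglm shrinkage.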

Sequence | shrunken log2 fold change
RRIRCRPPRLPRPRPRPVEWPRP | 0.000166
RRIRPRPPRLPRPRPRPFMWPRP | -0.168
RRIRTRPPRLPRPRPRPTMHPRP | 0.0843
RRIRERPPRLPRPRPRPLEIPRP | 0.0282
RRIRVRPPRLPRPRPRPRSDPRP | -0.258
RRIRFRPPRLPRPRPRPDRNPRP | -0.182
RRIRFRPPRLPRPRPRPFRQPRP | -0.00049
RRIRDRPPRLPRPRPRPGEAPRP | 1.1
RRIRFRPPRLPRPRPRPSSCPRP | -0.183
RRIRQRPPRLPRPRPRPVVHPRP | -0.164
RRIRKRPPRLPRPRPRPTDPPRP | 0.0238
RRIRPRPPRLPRPRPRPRRGPRP | 0.46
RRIRKRPPRLPRPRPRPWQGPRP | 0.0142
RRIRFRPPRLPRPRPRPQLPPRP | -0.0654
RRIRNRPPRLPRPRPRPVAEPRP | 0.363
RRIRHRPPRLPRPRPRPNMLPRP | -0.387
RRIRRRPPRLPRPRPRPGAKPRP | 0.701
RRIRVRPPRLPRPRPRPYSAPRP | -0.805
RRIRIRPPRLPRPRPRPVNCPRP | -0.34
RRIRARPPRLPRPRPRPNRLPRP | 0.0862
RRIRVRPPRLPRPRPRPEGNPRP | 0.00902
RRIRWRPPRLPRPRPRPHMTPRP | 0.118
RRIRVRPPRLPRPRPRPCMHPRP | 1.2
RRIRGRPPRLPRPRPRPRFHPRP | 0.0803
RRIRVRPPRLPRPRPRPDYMPRP | 0.0631

Sequence | shrunken log2 fold change
RRIRFRPPRLPRPRPRPCPMPRP | -0.00789
RRIRLRPPRLPRPRPRPAIVPRP | 0.0701
RRIRDRPPRLPRPRPRPRCAPRP | 0.885
RRIRARPPRLPRPRPRPMADPRP | 0.357
RRIRGRPPRLPRPRPRPKVFPRP | -0.00639
RRIRLRPPRLPRPRPRPCWSPRP | -0.172
RRIRQRPPRLPRPRPRPLIMPRP | -0.0338
RRIRLRPPRLPRPRPRPEECPRP | 0.00698
RRIRQRPPRLPRPRPRPRCMPRP | -0.164
RRIRNRPPRLPRPRPRPYDHPRP | -0.219
RRIRRRPPRLPRPRPRPEIWPRP | 0.621
RRIRCRPPRLPRPRPRPRERPRP | 0.875
RRIRVRPPRLPRPRPRPALYPRP | 0.22
RRIRDRPPRLPRPRPRPRMRPRP | 0.984
RRIRVRPPRLPRPRPRPCGVPRP | -0.0743
RRIRARPPRLPRPRPRPQNYPRP | -0.1
RRIRSRPPRLPRPRPRPVFNPRP | -0.709
RRIRARPPRLPRPRPRPCSRPRP | 0.21
RRIRSRPPRLPRPRPRPDRGPRP | -0.0384
RRIRGRPPRLPRPRPRPGSMPRP | 0.305
RRIRIRPPRLPRPRPRPTFWPRP | 0.407
RRIRTRPPRLPRPRPRPKMEPRP | -0.0203
RRIRFRPPRLPRPRPRPCYNPRP | -0.255
RRIRFRPPRLPRPRPRPLKHPRP | -0.475
RRIRLRPPRLPRPRPRPPYWPRP | 0.106

Sequence | shrunken log2 fold change
RRIRCRPPRLPRPRPRPLQKPRP | -0.0859
RRIRFRPPRLPRPRPRPLPWPRP | -0.195
RRIRRRPPRLPRPRPRPYSFPRP | -0.529
RRIRFRPPRLPRPRPRPSSIPRP | -0.945
RRIRMRPPRLPRPRPRPPIDPRP | 0.0677
RRIRARPPRLPRPRPRPTYRPRP | 0.0376
RRIRFRPPRLPRPRPRPQVGPRP | -0.0394
RRIRQRPPRLPRPRPRPPSNPRP | -0.481
RRIRCRPPRLPRPRPRPFDEPRP | -0.0888
RRIRQRPPRLPRPRPRPCQYPRP | -0.00191
RRIRCRPPRLPRPRPRPCHSPRP | -1.91
RRIRWRPPRLPRPRPRPMWNPRP | -0.0699
RRIRHRPPRLPRPRPRPANVPRP | -0.192
RRIRVRPPRLPRPRPRPHYAPRP | -0.0814
RRIRCRPPRLPRPRPRPMYHPRP | -0.974
RRIRSRPPRLPRPRPRPYHYPRP | -0.527
RRIRARPPRLPRPRPRPVSKPRP | 0.141
RRIRVRPPRLPRPRPRPPYPPRP | 0.0226
RRIRQRPPRLPRPRPRPGITPRP | -0.103
RRIRFRPPRLPRPRPRPWVSPRP | -0.272
RRIRDRPPRLPRPRPRPAYCPRP | 0.00854
RRIRVRPPRLPRPRPRPVHPPRP | 0.312
RRIRKRPPRLPRPRPRPHDFPRP | -0.0488
RRIRMRPPRLPRPRPRPKQNPRP | 1.16
RRIRQRPPRLPRPRPRPCRRPRP | 0.00897

Sequence | shrunken log2 fold change
RRIRLRPPRLPRPRPRPRCAPRP | 0.504
RRIRNRPPRLPRPRPRPSKSPRP | -0.227
RRIRYRPPRLPRPRPRPNFDPRP | -0.565
RRIRYRPPRLPRPRPRPHVLPRP | -0.0311
RRIRIRPPRLPRPRPRPGNGPRP | 0.0389
RRIRIRPPRLPRPRPRPLGHPRP | -0.425
RRIRFRPPRLPRPRPRPSVMPRP | -0.537
RRIRGRPPRLPRPRPRPFRGPRP | -0.0655
RRIRYRPPRLPRPRPRPYREPRP | 0.0196
RRIRCRPPRLPRPRPRPCVMPRP | -0.0643
RRIRLRPPRLPRPRPRPMSNPRP | -0.089
RRIRQRPPRLPRPRPRPREHPRP | -0.117
RRIRERPPRLPRPRPRPLMDPRP | -0.134
RRIRYRPPRLPRPRPRPPNKPRP | -0.585
RRIRCRPPRLPRPRPRPSERPRP | -0.0162
RRIRHRPPRLPRPRPRPVMAPRP | -0.27
RRIRPRPPRLPRPRPRPRKFPRP | -0.188
RRIRVRPPRLPRPRPRPQPRPRP | 0.429
RRIRDRPPRLPRPRPRPDENPRP | 0.511
RRIRGRPPRLPRPRPRPVGGPRP | 0.897
RRIRIRPPRLPRPRPRPSNPPRP | -0.74
RRIRLRPPRLPRPRPRPSCCPRP | -0.212
RRIRKRPPRLPRPRPRPHICPRP | 0.00561
RRIRHRPPRLPRPRPRPAYIPRP | -0.00844
RRIRQRPPRLPRPRPRPPWDPRP | 0.224

Sequence | shrunken log2 fold change
RRIRHRPPRLPRPRPRPCDFPRP | -0.0501
RRIRYRPPRLPRPRPRPKEYPRP | 0.171
RRIRIRPPRLPRPRPRPLQIPRP | -0.165
RRIRLRPPRLPRPRPRPQSRPRP | -0.377
RRIRFRPPRLPRPRPRPMWLPRP | 0.0605
RRIRHRPPRLPRPRPRPPMFPRP | -0.214
RRIRVRPPRLPRPRPRPAYSPRP | -0.167
RRIRFRPPRLPRPRPRPMNWPRP | -0.143
RRIRGRPPRLPRPRPRPVLAPRP | 0.773
RRIRTRPPRLPRPRPRPFMFPRP | -0.586
RRIRLRPPRLPRPRPRPEITPRP | -0.11
RRIRWRPPRLPRPRPRPMVWPRP | 0.025
RRIRKRPPRLPRPRPRPNVWPRP | 0.258
RRIRNRPPRLPRPRPRPWEDPRP | -0.0966
RRIRNRPPRLPRPRPRPILAPRP | -0.264
RRIRKRPPRLPRPRPRPRINPRP | 0.0244
RRIRIRPPRLPRPRPRPIDDPRP | 0.0145
RRIRIRPPRLPRPRPRPPDRPRP | 0.109
RRIRTRPPRLPRPRPRPVSDPRP | -0.114
RRIRTRPPRLPRPRPRPPNDPRP | -0.133
RRIRNRPPRLPRPRPRPRKYPRP | -0.258
RRIRRRPPRLPRPRPRPFLNPRP | -0.0441
RRIRMRPPRLPRPRPRPVECPRP | -0.117
RRIRSRPPRLPRPRPRPTAYPRP | -0.00955
RRIRKRPPRLPRPRPRPRKKPRP | 0.381

Sequence | shrunken log2 fold change
RRIRYRPPRLPRPRPRPQCKPRP | -1.34
RRIRDRPPRLPRPRPRPFHSPRP | -0.13
RRIRQRPPRLPRPRPRPCSNPRP | -0.174
RRIRSRPPRLPRPRPRPLTGPRP | 0.043
RRIRHRPPRLPRPRPRPGYMPRP | -0.49
RRIRFRPPRLPRPRPRPYTHPRP | -0.532
RRIRCRPPRLPRPRPRPKWNPRP | -0.373
RRIRCRPPRLPRPRPRPMLDPRP | 0.0729
RRIRIRPPRLPRPRPRPVDLPRP | 0.0939
RRIRYRPPRLPRPRPRPDWRPRP | 0.22
RRIRERPPRLPRPRPRPYLYPRP | -0.927
RRIRQRPPRLPRPRPRPACRPRP | -0.0513
RRIRERPPRLPRPRPRPQGQPRP | -0.0238
RRIRFRPPRLPRPRPRPCKFPRP | -0.0298
RRIRWRPPRLPRPRPRPNVFPRP | -0.304
RRIRGRPPRLPRPRPRPHWNPRP | -0.017
RRIRERPPRLPRPRPRPSFMPRP | -0.546
RRIRTRPPRLPRPRPRPHNMPRP | -0.651
RRIRYRPPRLPRPRPRPTVPPRP | -0.382
RRIRPRPPRLPRPRPRPWKIPRP | -0.244
RRIRGRPPRLPRPRPRPGQHPRP | 0.0185
RRIRIRPPRLPRPRPRPAVRPRP | 0.445
RRIRWRPPRLPRPRPRPYHFPRP | 0.0137
RRIRWRPPRLPRPRPRPINKPRP | -0.431
RRIRQRPPRLPRPRPRPPQKPRP | -0.167
